Data taken from PMC1540728.

T1: hnRNP F qRRM1-2 (Homo sapiens, UniProt P52597 1-194)
T1 sequence: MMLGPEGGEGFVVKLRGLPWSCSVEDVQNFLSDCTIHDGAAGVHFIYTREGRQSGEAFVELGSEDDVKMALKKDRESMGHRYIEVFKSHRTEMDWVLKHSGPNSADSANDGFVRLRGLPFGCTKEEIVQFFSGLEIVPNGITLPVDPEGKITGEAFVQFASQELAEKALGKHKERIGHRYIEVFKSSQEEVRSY

T2: hnRNP F qRRM3 (Homo sapiens, UniProt P52597 277-381)
T2 sequence: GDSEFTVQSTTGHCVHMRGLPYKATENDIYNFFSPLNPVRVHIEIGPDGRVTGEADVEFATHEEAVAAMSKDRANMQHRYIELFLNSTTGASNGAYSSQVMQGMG

T3: hnRNP F qRRM2 (Homo sapiens, UniProt P52597 103-194)
T3 sequence: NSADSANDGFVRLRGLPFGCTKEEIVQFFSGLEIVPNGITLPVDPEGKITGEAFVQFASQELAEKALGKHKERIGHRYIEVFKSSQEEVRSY


Tests used:
Assay in all cases: NMR titration
hnRNP F qRRM1-2 = molecular target: T1, hnRNP F qRRM1-2
hnRNP F qRRM3 = molecular target: T2, hnRNP F qRRM3
hnRNP F qRRM2 = molecular target: T3, hnRNP F qRRM2

Binder | binding result (hnRNP F qRRM2) | further results
CGGGAUGGGGUA (structured_RNA) [Bcl-x G-tracts 1-2 RNA] |  | binding result (hnRNP F qRRM1-2): binds
CUGGGGU (structured_RNA) [Bcl-x third G-tract RNA] |  | binding result (hnRNP F qRRM3): no binding
GGG (ssRNA) [GGG RNA] | binds | 
UGCAUG (ssRNA) [Fox RNA-binding site UGCAUG] | no binding | 
